According to PMC5698806 (Molecular cell, 2017):
Substitutions are numbered along the chain they refer to. In names and notes the source's numbering stands. Several values for one entry are separate records, joined by “and”; a condition that tells them apart may be missing. Identical values can stand only once. Each block holds one binder with its values, some of them ahead of it.

T1: Tpz1 (full length, in S. pombe) (S. pombe, UniProt O14246 1-508)
T1 sequence (looked up): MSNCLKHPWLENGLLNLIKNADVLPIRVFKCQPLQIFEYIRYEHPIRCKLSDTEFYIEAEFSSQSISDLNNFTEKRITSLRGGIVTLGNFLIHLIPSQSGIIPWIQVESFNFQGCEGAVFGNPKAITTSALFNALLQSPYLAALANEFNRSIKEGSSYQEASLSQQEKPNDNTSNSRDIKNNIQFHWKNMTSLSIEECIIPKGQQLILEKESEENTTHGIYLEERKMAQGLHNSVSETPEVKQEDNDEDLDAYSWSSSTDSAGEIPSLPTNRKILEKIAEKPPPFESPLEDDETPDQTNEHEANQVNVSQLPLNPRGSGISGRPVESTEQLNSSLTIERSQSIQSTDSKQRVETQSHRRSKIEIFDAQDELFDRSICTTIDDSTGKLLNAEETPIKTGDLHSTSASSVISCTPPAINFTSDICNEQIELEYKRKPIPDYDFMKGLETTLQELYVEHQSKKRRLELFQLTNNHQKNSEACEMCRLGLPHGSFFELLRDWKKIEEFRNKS

T2: Rap1^467–496 (S. pombe, UniProt Q96TL7 467-496)
T2 chain (looked up): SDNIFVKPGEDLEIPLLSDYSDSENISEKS

T3: Poz1ΔN (Poz1^29-249) (S. pombe, UniProt O13852 29-249)
T3 sequence (looked up): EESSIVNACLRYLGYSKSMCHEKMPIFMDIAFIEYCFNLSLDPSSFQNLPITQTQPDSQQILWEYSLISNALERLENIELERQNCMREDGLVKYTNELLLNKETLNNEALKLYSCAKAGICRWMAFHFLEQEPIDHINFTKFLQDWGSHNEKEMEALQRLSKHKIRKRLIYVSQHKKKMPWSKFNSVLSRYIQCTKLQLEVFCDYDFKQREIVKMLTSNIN

T4: Poz1^L14R-Tpz1^475–508 (S. pombe, UniProt O14246 475-508; O13852 1-249, L14R)
T4 sequence (looked up) 1: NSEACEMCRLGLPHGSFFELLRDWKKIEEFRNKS
T4 sequence (looked up) 2: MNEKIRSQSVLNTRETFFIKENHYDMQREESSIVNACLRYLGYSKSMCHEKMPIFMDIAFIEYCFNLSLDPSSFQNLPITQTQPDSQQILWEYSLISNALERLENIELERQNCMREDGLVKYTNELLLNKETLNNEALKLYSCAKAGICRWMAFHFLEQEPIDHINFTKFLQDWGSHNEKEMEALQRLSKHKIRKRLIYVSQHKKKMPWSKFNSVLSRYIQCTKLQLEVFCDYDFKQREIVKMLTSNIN

T5: Tpz1-Poz1ΔN complex (S. pombe, UniProt O14246 475-508; O13852 29-249)
T5 sequence (looked up) 1: T4 sequence (looked up) 1
T5 sequence (looked up) 2: T3 sequence (looked up)

T6: TIN2 (human, UniProt Q9BSI4 1-451)
T6 sequence (looked up): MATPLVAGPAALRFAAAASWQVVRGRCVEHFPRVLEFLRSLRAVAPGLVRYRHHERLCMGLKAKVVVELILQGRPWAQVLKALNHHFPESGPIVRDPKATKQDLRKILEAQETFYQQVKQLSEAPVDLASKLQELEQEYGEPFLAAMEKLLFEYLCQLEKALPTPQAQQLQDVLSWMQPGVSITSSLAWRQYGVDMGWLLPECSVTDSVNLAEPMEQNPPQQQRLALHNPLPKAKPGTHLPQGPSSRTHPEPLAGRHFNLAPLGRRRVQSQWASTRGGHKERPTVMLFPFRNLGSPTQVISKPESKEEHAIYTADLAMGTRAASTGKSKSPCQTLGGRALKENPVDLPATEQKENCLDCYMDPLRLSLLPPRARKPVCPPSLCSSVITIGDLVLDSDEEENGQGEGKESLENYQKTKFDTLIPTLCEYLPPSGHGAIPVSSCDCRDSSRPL

B1: Poz1ΔN (in S. pombe) (domain or fragment, UniProt O13852 29-249, looked up)
chain: T3 sequence (looked up)
B2: Poz1 of the improved crystal construct Tpz1^475–508-Poz1-Rap1^467–496 (residues 73–86 replaced by GGA, 117–126 by GGGSA) (natural protein, S. pombe)
chain: MNEKIRSQSVLNTLETFFIKENHYDMQREESSIVNACLRYLGYSKSMCHEKMPIFMDIAFIEYCFNLSLDPSGGAQQILWEYSLISNALERLENIELERQNCMREGGGSALLNKETLNNEALKLYSCAKAGICRWMAFHFLEQEPIDHINFTKFLQDWGSHNEKEMEALQRLSKHKIRKRLIYVSQHKKKMPWSKFNSVLSRYIQCTKLQLEVFCDYDFKQREIVKMLTSNIN
B3: GST-Rap1^446-512 (domain or fragment, S. pombe, UniProt Q96TL7 446-512, looked up)
chain: EKTLRETSFRSLDDMSLRKSNSDNIFVKPGEDLEIPLLSDYSDSENISEKSSDDEEAFEKQVTSSYS
B4: Poz1 (full length) (natural protein, S. pombe, UniProt O13852 1-249, looked up)
chain: T4 sequence (looked up) 2 with R14L
B5: Biotin-SUMO-tagged Rap1^446-512 (domain or fragment, S. pombe, UniProt Q96TL7 446-512, looked up)
chain: B3 chain
modifications: also: SUMO tag fused, biotin on Avi tag
B6: GST-Tpz1^406-508 (domain or fragment, S. pombe, UniProt O14246 406-508, looked up)
chain: SSVISCTPPAINFTSDICNEQIELEYKRKPIPDYDFMKGLETTLQELYVEHQSKKRRLELFQLTNNHQKNSEACEMCRLGLPHGSFFELLRDWKKIEEFRNKS
B7: Rap1^446-523 (domain or fragment, S. pombe, UniProt Q96TL7 446-523, looked up)
chain: EKTLRETSFRSLDDMSLRKSNSDNIFVKPGEDLEIPLLSDYSDSENISEKSSDDEEAFEKQVTSSYSSPIKVKSQGKS
B8: Tpz1^475–508-Poz1 complex (complex, S. pombe)
chain 1: T4 sequence (looked up) 1
chain 2: T4 sequence (looked up) 2 with R14L
B9: Poz1-L14R (in S. pombe) (natural protein, UniProt O13852 1-249, looked up)
chain: T4 sequence (looked up) 2

What was measured:
[1] = target: T1, Tpz1 (full length, in S. pombe); assay: co-IP
Rap1^467–496 = target: T2, Rap1^467–496; assay: crystal structure
Poz1 (full length) [2] = target: B4; assay: pull-down
[3] = target: B8; assay: pull-down
[4] = target: B5; assay: BLI
Poz1ΔN (Poz1^29-249) = target: T3, Poz1ΔN (Poz1^29-249); assay: BLI
Poz1^L14R-Tpz1^475–508 = target: T4, Poz1^L14R-Tpz1^475–508; assay: BLI
Poz1 (full length) [5] = target: B4; assay: ITC
Tpz1-Poz1ΔN complex = target: T5, Tpz1-Poz1ΔN complex; assay: ITC
[6] = target: B8; assay: ITC
Poz1 (full length) [7] = target: B4; assay: crystal structure
TIN2 = target: T6, TIN2; assay: ITC

Binder: B1
fold decrease of the co-IP against wild-type cells [1]: ~3 fold

Binder: B2
binding result (Rap1^467–496): binds

Binder: B3
binding result (Poz1 (full length) [2]): binds
binding result [3]: binds

Binder: B4
kon, fold against Tpz1-bound Poz1 [4]: ~5 fold

Binder: B5
binding result (Poz1ΔN (Poz1^29-249)): binds
binding result (Poz1^L14R-Tpz1^475–508): binds

Binder: B6
binding result (Poz1 (full length) [2]): binds

Binder: B7
Kd (Poz1 (full length) [5]): 5.62 µM and 4.95 µM
Kd (Tpz1-Poz1ΔN complex): 4.58 µM
Kd [6]: 0.48 µM

binding result (Poz1 (full length) [7]): binds
Binder: IFVKPGEDLEIPLLSDYSDSENISE (domain or fragment, S. pombe, UniProt Q96TL7 470-494, looked up) [Rap1^470-494]

Kd (TIN2): 3.11 µM
Binder: APADGEGGSELQPKNKRMTISRLVLEEDSQSTEPSAGLNSSQE (domain or fragment, human, UniProt Q15554 382-424, looked up) [TRF2^382-424]

Binder: B8
koff, fold slower than with free Poz1 [4]: ~60 fold

Binder: B9
fold decrease of the co-IP against wild-type cells [1]: ~3 fold
